From patent publication US20090257987A1, “Method of generating dopamine-secreting cells” (Ramot At Tel Aviv University Ltd., priority 2008, published 2009)

Experiments:
[1] = tested on: human MSCs; experiment: Western blot analysis of TH protein expression after differentiation protocols; type: cell-based; conditions: result in words
Method: MSC isolation, culture, and characterization: Fresh bone marrow aspirates harvested from the iliac crests of adult donors (age 19-76) were diluted with Hanks' balanced salt solution. Mononuclear cells were isolated by centrifugation in Unisep-Maxi tubes (Novamed, Jerusalem, Israel) by density gradient. The cells were then plated in Dulbecco's Modified Eagle's Medium (DMEM) supplemented with 15% fetal bovine serum (FBS), 2 mM glutamine, 100 μg/ml streptomycin, 100 units/ml penicillin, 12.5 units/ml nystatin (Biological Industries, Beit HaEmek, Israel) in polystyrene plastic 75-cm^2 tissue-culture flasks. After 24 hours, nonadherent cells were removed. The medium was changed every 3-4 days. Adherent cells were cultured to 70%-90% confluence and reseeded at a density of 5,000-10,000 cells/cm^2. The cells were maintained at 37° C. in a humidified 5% CO2 incubator. The MSCs were characterized for their cell-surface phenotype and their mesenchymal differentiation capacity, as previously described (Blondheim er al., 2006, Stem Cells Dev 15:141-164).
(§1) Induction of differentiation: The differentiation protocol was composed of 2 steps. In step 1, cells were transferred to serum-free medium (DMEM) supplemented with 2 mM glutamine, 100 μg/ml streptomycin, 100 units/ml penicillin, 12.5 units/ml nystatin (Biological Industries), N2 supplement (Invitrogen, New Haven, Conn.) and 20 ng/ml fibroblast growth factor 2 and epidermal growth factor (both from R&D Systems, Minneapolis, Minn.) for 48-72 hours. In step 2, the medium was changed to Basic induction medium containing Neurobasal, B27 (both from Invitrogen), in addition to 1 mM dibutyryl cyclic AMP (dbcAMP), 3-isobutyl-1-methyl-xanthine (IBMX), and 200 μM ascorbic acid (all from Sigma, St Louis, Mo.). The following factors were added to the Basic induction medium in different combinations: brain-derived neurotrophic factor (BDNF; 50 ng/ml), glial-derived neurotrophic factor (GDNF;10 ng/ml), neurturin (100 ng/ml), neurotrophin 3 (NT3; 50 ng/ml), and fibroblast growth factor 8 (FGF8; 100 ng/ml (all from Cytolab, Rehovot, Israel); transforming growth factor β3 (TGFβ3; 2 ng/ml), sonic hedgehog (Shh; 500 ng/ml, both from R&D); estrogen (0.1 μM, Sigma); and all-trans-retinoic acid (RA; 0.1 μM, Sigma).
Western blot: Total protein was extracted by suspending the harvested cells in lysis buffer containing 10 mM Tris base (U.S. Biochemical Corporation, Cleveland, Ohio), 5 mM EDTA (Merck, Whitehouse Station, N.J.), 140 mM sodium chloride (NaCl; BioLab, Jerusalem, Israel), 10 mM sodium fluoride (NaF; Sigma), 0.5% NP 40 (U.S. Biochemical Corporation), and 1 μM phenylmethylsulfonyl fluoride (PMSF; Sigma). Following incubation on ice for 30 minutes, the mixture was centrifuged and the supernatants were collected. Protein content was determined by the BCA protein assay kit (Pierce, Rockford, Ill.). Twenty-five micrograms of protein from each sample were subjected to sodium dodecyl-sulfate (SDS)-polyacrylamide gel electrophoresis (PAGE) (12.5% acrylamide), followed by electrophoretic transfer to nitrocellulose membrane (Schleicher & Schuell, Dassel, Germany). Membranes were probed by mouse anti-TH (1:10,000, Sigma) and mouse anti β-actin (1:10,000, Chemicon, Billerica, Mass.) and then by goat anti-mouse horseradish peroxidase conjugated antibody (1:10,000) (Jackson, West Grove, Pa.) and rabbit anti-emerin (1:5,000, Santa Cruz Biotechnology, Santa Cruz, Calif.), followed by goat anti-rabbit horseradish peroxidase conjugated secondary antibody (1:10,000, Sigma). Adequate controls included HeLa cells (ATCC, Manassas, Va.) as negative control and neuroblastoma M17 cells (BE (2)-M17, ATCC) as positive control. Proteins of interest were detected using the enhanced Super Signal® chemiluminescent detection kit (Pierce).

[2] = tested on: human MSCs; experiment: HPLC analysis of dopamine secretion; type: cell-based
Method: as §1, with “Sigma). High performance liquid chromotography (HPLC): Reverse-phase HPLC coupled with an electrochemical detector (ECD) was used to measure dopamine levels. […]” for “Sigma).”

B1: brain-derived neurotrophic factor (protein, UniProt P23560 19-247, looked up)
Neurotrophic factor BDNF …: APMKEANIRGQGGLAYPGVRTHGTLESVNGPKAGSRGLTSLADTFEHVIEELLDEDQKVRPNEENNKDADLYTSRVMLSSQVPLEPPLLFLLEEYKNYLDAANMSMRVRRHSDPARRGELSVCDSISEWVTAADKKTAVDMSGGTVTVLEKVPVSKGQLKQYFYETKCNPMGYTKEGCRGIDKRHWNSQCRTTQSYVRALTMDSKKRIGWRFIRIDTSCVCTLTIKRGR
notes: brain-derived neurotrophic factor (50 ng/ml) added to the Basic induction medium
TH protein expression level normalized to actin ([1]; listed as BDNF): directly affected the TH protein expression level | TH protein expression level normalized to actin ([1]; listed as BDNF alone): significant results | dopamine secreted to the depolarization buffer (mean) ([2]; 56 mM KCL in HBSS for 30 minutes): 1127.86 pg/ml of dopamine per 10^6 cells | dopamine secreted to the conditioned media (mean) ([2]; differentiation medium): 673.69 pg/ml of dopamine per 10^6 cells
